Reference: paper PMC5730154

Biological target: T1, PamR (YdcH) (Bacillus subtilis 168) (UniProt P96625)
T1 sequence: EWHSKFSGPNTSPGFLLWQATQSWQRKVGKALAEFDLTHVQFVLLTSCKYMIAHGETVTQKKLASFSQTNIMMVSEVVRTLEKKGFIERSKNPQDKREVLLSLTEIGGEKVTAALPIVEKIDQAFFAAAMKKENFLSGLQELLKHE
Test: EMSA
Settings: 20 mM NaPO4 pH 7, 50 mM NaCl, 5 mM MgCl2, 10% glycerol, 0.1 ug/ul salmon sperm DNA, 10 min at room temperature; 4% native acrylamide gel

In the case of “AATGTTCCTTCCGTTCCATTTTGAAATTGTCCTTTCAAAGAATCTGATGCAATACCCGTCTCCCATTGATCCATTGTTTCTGTTTCCTGATAACAGTTCCAGGTTTTCCCACATCCACATCAGCTATCGCTGTGTATTCATAATTCCACATCCCATAAGCTCCCAGAATGATAAGTTCACTTATTAATTATAATAAGCGCACTTATTAATAGTCAACCGCAAAAAAAAGAAGCCGGATGTCCAGCTTCTTTTTCTGGTTTTTTAGGACAGCTGTCCGAGAATATAGGTCAGGT (double strand) [PydcF wt 293 bp]”, the binding is reported as “binds”.

With “ACCTGACCTATATTCTCGGACAGCTGTCCTAAAAAACCAGAAAAAGAAGCTGGACATCCGGCTTCTTTTTTTTGCGGTTGACTATATTATTCTGCGCTTATTATAATTAATAAGTGAACTTATCATTCTGGGAGCTTATGGGATGTGGAATTATGAATACACAGCGATAGCTGATGTGGATGTGGGAAAACCTGGAACTGTTATCAGGAAACAGAAACAATGGATCAATGGGAGACGGGTATTGCATCAGATTCTTTGAAAGGACAATTTCAAAATGGAACGGAAGGAACATT (double strand) [PydcF IR1* mutant]” the binding was “binds more weakly”.
